Tests used:
[1] = target: T1, human voltage-gated potassium channel Kv1.3, expressed endogenously in human peripheral blood T cells (human), P22001
[2] = target: T1, human voltage-gated potassium channel …; remark: listed apart in the source
[3] = target: EGFP-tagged human IKCa1 Ca2+-activated K channel expressed in Cos-7 cells (human), O15554
[4] = target: human Kv1.2 channel expressed in Cos-7 cells (human), P16389
[5] = target: T2, mouse Kv1.1 channel stably expressed in L929 cells (mouse), P16388
T2 chain: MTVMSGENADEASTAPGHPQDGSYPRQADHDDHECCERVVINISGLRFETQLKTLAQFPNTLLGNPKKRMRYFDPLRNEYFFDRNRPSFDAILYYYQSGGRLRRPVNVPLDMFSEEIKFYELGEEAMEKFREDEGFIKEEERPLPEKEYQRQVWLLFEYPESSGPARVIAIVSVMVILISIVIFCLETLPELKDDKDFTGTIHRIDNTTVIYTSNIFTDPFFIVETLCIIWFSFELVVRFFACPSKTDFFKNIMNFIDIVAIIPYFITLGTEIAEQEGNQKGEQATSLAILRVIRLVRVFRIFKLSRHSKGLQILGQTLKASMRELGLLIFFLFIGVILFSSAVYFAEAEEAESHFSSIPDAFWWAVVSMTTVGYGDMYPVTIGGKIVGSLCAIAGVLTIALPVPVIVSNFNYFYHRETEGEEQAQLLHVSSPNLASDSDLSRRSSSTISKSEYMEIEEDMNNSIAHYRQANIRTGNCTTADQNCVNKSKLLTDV

T1 sequence (P22001 whole entry): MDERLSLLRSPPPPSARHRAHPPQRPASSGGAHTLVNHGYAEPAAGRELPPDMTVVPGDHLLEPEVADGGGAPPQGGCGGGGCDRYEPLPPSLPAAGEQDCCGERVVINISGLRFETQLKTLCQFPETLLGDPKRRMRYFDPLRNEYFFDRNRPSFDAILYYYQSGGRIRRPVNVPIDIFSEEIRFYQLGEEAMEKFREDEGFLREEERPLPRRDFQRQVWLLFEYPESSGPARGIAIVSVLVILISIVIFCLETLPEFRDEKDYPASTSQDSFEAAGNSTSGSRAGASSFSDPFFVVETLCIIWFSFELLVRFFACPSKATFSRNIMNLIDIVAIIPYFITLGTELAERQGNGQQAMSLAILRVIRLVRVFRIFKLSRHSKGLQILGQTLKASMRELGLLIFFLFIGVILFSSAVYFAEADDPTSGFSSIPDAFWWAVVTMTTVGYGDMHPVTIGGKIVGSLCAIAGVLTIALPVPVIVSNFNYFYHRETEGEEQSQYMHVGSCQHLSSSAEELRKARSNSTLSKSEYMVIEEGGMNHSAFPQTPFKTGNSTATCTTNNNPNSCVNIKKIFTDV
Sequence of human Kv1.2 channel expressed in Cos-7 cells (human), P16389 (P16389 whole entry): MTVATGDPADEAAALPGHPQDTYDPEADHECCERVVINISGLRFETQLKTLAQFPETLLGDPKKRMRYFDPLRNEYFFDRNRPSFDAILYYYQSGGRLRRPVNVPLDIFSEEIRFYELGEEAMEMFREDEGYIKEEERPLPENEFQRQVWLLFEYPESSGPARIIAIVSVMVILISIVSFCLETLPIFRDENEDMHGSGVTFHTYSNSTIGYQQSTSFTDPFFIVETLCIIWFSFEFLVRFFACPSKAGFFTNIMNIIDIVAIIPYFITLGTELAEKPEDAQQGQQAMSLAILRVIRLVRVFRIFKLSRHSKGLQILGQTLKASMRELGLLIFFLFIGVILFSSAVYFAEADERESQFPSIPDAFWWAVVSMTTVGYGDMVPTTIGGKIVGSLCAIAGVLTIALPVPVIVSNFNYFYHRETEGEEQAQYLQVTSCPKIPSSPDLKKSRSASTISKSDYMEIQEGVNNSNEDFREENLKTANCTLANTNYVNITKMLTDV
Sequence of EGFP-tagged human IKCa1 Ca2+-activated K channel expressed in Cos-7 cells (human), O15554 (O15554 whole entry): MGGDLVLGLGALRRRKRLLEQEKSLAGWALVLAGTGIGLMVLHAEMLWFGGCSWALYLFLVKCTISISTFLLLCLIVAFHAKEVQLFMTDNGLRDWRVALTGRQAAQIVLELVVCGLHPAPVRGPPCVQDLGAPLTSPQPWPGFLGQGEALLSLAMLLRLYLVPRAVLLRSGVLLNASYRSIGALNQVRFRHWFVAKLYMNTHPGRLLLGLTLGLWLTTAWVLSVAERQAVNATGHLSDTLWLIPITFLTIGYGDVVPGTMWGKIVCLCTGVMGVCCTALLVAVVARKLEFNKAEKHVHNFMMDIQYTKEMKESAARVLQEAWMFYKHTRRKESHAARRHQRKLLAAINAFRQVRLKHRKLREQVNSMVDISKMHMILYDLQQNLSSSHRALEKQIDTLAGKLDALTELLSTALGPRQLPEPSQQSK

B1: Vm24 (native peptide purified from the venom of Vaejovis mexicanus smithi) (peptide)
peptide: AAAISCVGSPECPPKCRAQGCKNGKCMNRKCKCYYC
modifications: not checked
koff [1]: 0.00026 s⁻¹
time constant for washout [1]: 3800 s
Kd [2]: 0.0029 nM
Kd [3]: 14 nM
selectivity for hKv1.3 over hIKCa1 (fold) [3]: > 4500 fold
Kd [4]: 5 to 10 nM
selectivity for hKv1.3 over hKv1.2 (fold) [4]: > 1500 fold
Kd [5]: 30 to 40 nM
selectivity for hKv1.3 over mKv1.1 (fold) [5]: > 10000 fold
